Article PMC9896810
Where a chain is given by its changes, count along the chain named. Numbers in names are those of the source. One block for each binder: values may come before it.

Columns and labels:
GST-CrkL-SH3N [1] = experiment: pull-down; settings: chain shown with the change; PD with GST-CrkL-SH3N, C3G detected by western blot (WB:C3G); parent: 1.0
GST-CrkL-SH3N [2] = experiment: pull-down; settings: chain shown with the change, PD with GST-CrkL-SH3N, C3G detected by western blot (WB:C3G), parent: 1.0
C3G-AAAP (human), Q13905 = experiment: ITC; single-PRM mutants of C3G in the cell titrated with full-length CrkL or CrkL-SH3N; 25 °C; 1:1 model in SEDPHAT; N is the competent fraction of C3G
C3G-AAPA (human), Q13905 [3] = experiment: as above
[4] = target: Src-phosphorylated C3G-AAPP (pC3G-AAPP) (human), Q13905
[5] = target: Src-phosphorylated C3G-AAAP (pC3G-AAAP) (human), Q13905
[6] = target: Src-phosphorylated C3G-AAPA (pC3G-AAPA) (human), Q13905
C3G-AAPA (human), Q13905 [7] = target: C3G-AAPA (human), Q13905

ratio to parent (GST-CrkL-SH3N [2]; C3G-AAPA phosphorylated by Src (phospho AAPA)): 0.3
B3: C3G (full-length, residues 4-1077), Q13905-1 P283A; P284A; L286A; P287A; K289A; P453A; P454A; L456A; P457A; K459A; P608A; P609A; L611A; P612A; K614A (protein)
chain: DSQRSHLSSFTMKLMDKFHSPKIKRTPSKKGKPAEVSVKIPEKPVNKEATDRFLPEGYPLPLDLEQQAVEFMSTSAVASRSQRQKNLSWLEEKEKEVVSALRYFKTIVDKMAIDKKVLEMLPGSASKVLEAILPLVQNDPRIQHSSALSSCYSRVYQSLANLIRWSDQVMLEGVNSEDKEMVTTVKGVIKAVLDGVKELVRLTIEKQGRPSPTSPVKPSSPASKPDGPAELPLTDREVEILNKTTGMSQSTELLPDATDEEVAPPKPPLPGIRVVDNSPAAAAAPAKRQSAPSPTRVAVVAPMSRATSGSSLPVGINRQDFDVDCYAQRRLSGGSHSYGGESPRLSPCSSIGKLSKSDEQLSSLDRDSGQCSRNTSCETLDHYDPDYEFLQQDLSNADQIPQQTAWNLSPLPESLGESGSPFLGPPFQLPLGGHPQPDGPLAPGQQTDTAAAAAEAKRRSAASQTADGSGCRVSYERHPSQYDNISGEDLQSTAPIPSVPYAPFAAILPFQHGGSSAPVEFVGDFTAPESTGDPEKPPPLPEKKNKHMLAYMQLLEDYSEPQPSMFYQTPQNEHIYQQKNKLLMEVYGFSDSFSGVDSVQELAPAAAAAPAQRQLEPPAGKDGHPRDPSAVSGVPGKDSRDGSERAPKSPDALESAQSEEEVDELSLIDHNEIMSRLTLKQEGDDGPDVRGGSGDILLVHATETDRKDLVLYCEAFLTTYRTFISPEELIKKLQYRYEKFSPFADTFKKRVSKNTFFVLVRVVDELCLVELTEEILKLLMELVFRLVCNGELSLARVLRKNILDKVDQKKLLRCATSSQPLAARGVAARPGTLHDFHSHEIAEQLTLLDAELFYKIEIPEVLLWAKEQNEEKSPNLTQFTEHFNNMSYWVRSIIMLQEKAQDRERLLLKFIKIMKHLRKLNNFNSYLAILSALDSAPIRRLEWQKQTSEGLAEYCTLIDSSSSFRAYRAALSEVEPPCIPYLGLILQDLTFVHLGNPDYIDGKVNFSKRWQQFNILDSMRCFQQAHYDMRRNDDIINFFNDFSDHLAEEALWELSLKIKPRNITRRKTDREEKT

ratio to parent (GST-CrkL-SH3N [1]): 0.4
B4: C3G (full-length, residues 4-1077), Q13905-1 P283A; P284A; L286A; P287A; K289A; P540A; P541A; L543A; P544A; K546A; P608A; P609A; L611A; P612A; K614A (protein)
chain: B3 chain with A450P, A451P, A453L, A454P, A456K, P537A, P538A, L540A, P541A, K543A

The remaining lines, values behind:

B1: C3G (full-length, residues 4-1077), Q13905-1 P283A; P284A; L286A; P287A; K289A; P453A; P454A; L456A; P457A; K459A; P540A; P541A; L543A; P544A; K546A (protein)
chain: B3 chain with P537A, P538A, L540A, P541A, K543A, A605P, A606P, A608L, A609P, A611K
ratio to parent (GST-CrkL-SH3N [1]): 0.3
ratio to parent (GST-CrkL-SH3N [2]; C3G-AAAP phosphorylated by Src (phospho AAAP)): 0.4
ratio to parent (GST-CrkL-SH3N [2]): 0.4

B2: C3G (full-length, residues 4-1077), Q13905-1 P283A; P284A; L286A; P287A; K289A; P453A; P454A; L456A; P457A; K459A; P540A; P541A; L543A; P544A; K546A; Y554H (protein)
chain: DSQRSHLSSFTMKLMDKFHSPKIKRTPSKKGKPAEVSVKIPEKPVNKEATDRFLPEGYPLPLDLEQQAVEFMSTSAVASRSQRQKNLSWLEEKEKEVVSALRYFKTIVDKMAIDKKVLEMLPGSASKVLEAILPLVQNDPRIQHSSALSSCYSRVYQSLANLIRWSDQVMLEGVNSEDKEMVTTVKGVIKAVLDGVKELVRLTIEKQGRPSPTSPVKPSSPASKPDGPAELPLTDREVEILNKTTGMSQSTELLPDATDEEVAPPKPPLPGIRVVDNSPAAAAAPAKRQSAPSPTRVAVVAPMSRATSGSSLPVGINRQDFDVDCYAQRRLSGGSHSYGGESPRLSPCSSIGKLSKSDEQLSSLDRDSGQCSRNTSCETLDHYDPDYEFLQQDLSNADQIPQQTAWNLSPLPESLGESGSPFLGPPFQLPLGGHPQPDGPLAPGQQTDTAAAAAEAKRRSAASQTADGSGCRVSYERHPSQYDNISGEDLQSTAPIPSVPYAPFAAILPFQHGGSSAPVEFVGDFTAPESTGDPEKAAPAAEAKNKHMLAHMQLLEDYSEPQPSMFYQTPQNEHIYQQKNKLLMEVYGFSDSFSGVDSVQELAPPPALPPKQRQLEPPAGKDGHPRDPSAVSGVPGKDSRDGSERAPKSPDALESAQSEEEVDELSLIDHNEIMSRLTLKQEGDDGPDVRGGSGDILLVHATETDRKDLVLYCEAFLTTYRTFISPEELIKKLQYRYEKFSPFADTFKKRVSKNTFFVLVRVVDELCLVELTEEILKLLMELVFRLVCNGELSLARVLRKNILDKVDQKKLLRCATSSQPLAARGVAARPGTLHDFHSHEIAEQLTLLDAELFYKIEIPEVLLWAKEQNEEKSPNLTQFTEHFNNMSYWVRSIIMLQEKAQDRERLLLKFIKIMKHLRKLNNFNSYLAILSALDSAPIRRLEWQKQTSEGLAEYCTLIDSSSSFRAYRAALSEVEPPCIPYLGLILQDLTFVHLGNPDYIDGKVNFSKRWQQFNILDSMRCFQQAHYDMRRNDDIINFFNDFSDHLAEEALWELSLKIKPRNITRRKTDREEKT
ratio to parent (GST-CrkL-SH3N [2]): 0.4

B5: CrkL, full-length (human), P46109 1-303 (natural protein)
chain: MSSARFDSSDRSAWYMGPVSRQEAQTRLQGQRHGMFLVRDSSTCPGDYVLSVSENSRVSHYIINSLPNRRFKIGDQEFDHLPALLEFYKIHYLDTTTLIEPAPRYPSPPMGSVSAPNLPTAEDNLEYVRTLYDFPGNDAEDLPFKKGEILVIIEKPEEQWWSARNKDGRVGMIPVPYVEKLVRSSPHGKHGNRNSNSYGIPEPAHAYAQPQTTTPLPAVSGSPGAAITPLPSTQNGPVFAKAIQKRVPCAYDKTALALEVGDIVKVTRMNINGQWEGEVNGRKGLFPFTHVKIFDPQNPDENE
Kd (C3G-AAAP (human), Q13905): 2 µM
stoichiometry N (C3G-AAAP (human), Q13905): 0.55
Kd (C3G-AAPA (human), Q13905 [3]): 2 µM
stoichiometry N (C3G-AAPA (human), Q13905 [3]): 0.13
AC50 of the dose-response activation of the GEF activity of pC3G (0.2 µM) on Rap1b:mant-dGDP [4]: 2.2 µM
kmax of the dose-response activation of the GEF activity of pC3G (0.2 µM) on Rap1b:mant-dGDP [4]: 0.0357 s^-1 µM^-1
AC50 of the dose-response activation of the GEF activity of pC3G (0.2 µM) on Rap1b:mant-dGDP; the text says that pC3G-AAAP was not stimulated by CrkL [5]: 0.6 µM
kmax of the dose-response activation of the GEF activity of pC3G (0.2 µM) on Rap1b:mant-dGDP; the text says that pC3G-AAAP was not stimulated by CrkL [5]: 0.0045 s^-1 µM^-1
AC50 of the dose-response activation of the GEF activity of C3G (1 µM) on Rap1b:mant-dGDP (C3G-AAPP (human), Q13905): 23.7 µM
kmax of the dose-response activation of the GEF activity of C3G (1 µM) on Rap1b:mant-dGDP (C3G-AAPP (human), Q13905): 13600 M⁻¹ s⁻¹
AC50 of the dose-response activation of the GEF activity of pC3G (0.2 µM) on Rap1b:mant-dGDP [6]: 1.3 µM
kmax of the dose-response activation of the GEF activity of pC3G (0.2 µM) on Rap1b:mant-dGDP [6]: 0.0269 s^-1 µM^-1
AC50 of the dose-response activation of the GEF activity of C3G (1 µM) on Rap1b:mant-dGDP (C3G-AAPA (human), Q13905 [7]): 28.1 µM
kmax of the dose-response activation of the GEF activity of C3G (1 µM) on Rap1b:mant-dGDP (C3G-AAPA (human), Q13905 [7]): 9100 M⁻¹ s⁻¹

B6: CrkL-SH3N (residues 125-182), P46109 125-182 (domain or fragment)
chain: LEYVRTLYDFPGNDAEDLPFKKGEILVIIEKPEEQWWSARNKDGRVGMIPVPYVEKLV
Kd (C3G-AAPA (human), Q13905 [3]): 3.5 µM
stoichiometry N (C3G-AAPA (human), Q13905 [3]): 0.2
